Assay results taken from article PMC5028113.

Target: interferon-gamma (IFN-γ) (UniProt P01579 24-161)
Assay: competition

interferon-gamma (IFN-γ), sequence (P01579 24-161): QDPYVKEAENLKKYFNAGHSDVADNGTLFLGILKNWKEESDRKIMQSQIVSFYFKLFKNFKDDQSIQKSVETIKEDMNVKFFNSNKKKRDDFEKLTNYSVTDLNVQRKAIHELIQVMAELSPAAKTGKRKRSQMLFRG

B1: IFN-γ aptamer hybridized with biotin-DNA and thiol-DNA (invertase conjugate) (mixed)
DNA 1: TGGGGTTGGTTGTGTTGGGTGTTGTGTAAAAAAAAAAAAAACTACTCATCTGTGA
DNA 2: AAAAAAAAAAAATCACAGATGAGTAGT
?: AAAAAAAAAAACAACCAACCCCA
modifications: 5' biotin on strand 2; 5' thiol on strand 3
binding result: binds
